The nanobody polyreactivity screen of Harvey et al. (2022)

Assay: yeast display, Sf9 membrane polyspecificity reagent, FACS + sequencing; frameworks hold sequencing errors
Method in brief: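 Nanobodies from a synthetic yeast display library (Saccharomyces cerevisiae BJ5465), induced 36–48 hours with galactose, were stained 1 hour at 4 °C with 10% biotinylated, detergent-solubilized Sf9 membrane reagent, enriched on streptavidin microbeads, then FACS-sorted. Anti-HA (expression) and streptavidin (reagent binding) fluorescence set low and high (top ~1%) gates. Polyreactivity labels come from the gate of origin. Genes were colony-PCR amplified, MiSeq 2 × 250 sequenced and filtered by CDR length.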

Row | Sequence | polyreactivity (PSR sort gate)
1 | QVQLVESGGGLVQAGGSLRLSCAASGFTFWLYAMGWYRQAPGKERELVAAITSGGGTYYADSVKGRFTISRDNEKNTVYLQMNSLKPEDTAVYYCAAEWVRDYEQGVSSFGFYYWGQGTQVTVSS | low polyreactivity
2 | QVQLVESGGGLVQAGGSLRLSCAASGFTFWPYTMGWYRQAPGKERELVAVISSSGGSTYYADSVKGRFTISRDNAKNTVYLQMNSLKPEDTAVYYCNARRRYGHVDYWGQGTQVTVSS | high polyreactivity
3 | QVQLVESGGGLVQAGGSLRLSCAASGFTFWQYAMGWYRQAPGKERELVAAISGSGSSTYYADSVKGRFTISRDNAKNTVYFQMNSLKPEDTAVYYCATAISRYGRYYYWGQGTQVTVSS | high polyreactivity
4 | QVQLVESGGGLVQAGGSLRLSCAASGFTFWQYAMGWYRQAPGKERELVAAITSSGTSTNYADSVKGRFTISGDNAKKTVYLQMNSLKPEETAVYYCAADLGYYDLYYWGQGTQVTVSS | low polyreactivity
5 | QVQLVESGGGLVQAGGSLRLSCAASGFTFWQYDMGWYRQAPGKERELVAAITSSGSRTYYADSVKGRFTISRDNAKNTVYLQMNSLKPEDTAVYYCNTYLRYWVSYSYDYWGQGTQVTVSS | high polyreactivity
6 | QVQLVESGGGLVQAGGSLRLSCAASGFTFWRNALGWYRQAPGKERELVAAISWRGGSTYYADSVKGRFTISRDNAKNTVSLQINSRKPEDTAGYYCNVVYFRYYSGEYDYGGQGTQVTVSS | high polyreactivity
7 | QVQLVESGGGLVQAGGSLRLSCAASGFTFWWYAMGWYRQAPGKERELVAAISSGGSTNYADSVKGRFTISRDNAKNTVYLQMNSLKPEDTAVYYCNKDYYGSPSSYYGYDYWGQGTQVTESS | high polyreactivity
8 | QVQLVESGGGLVQAGGSLRLSCAASGFTFWYYAMGWYRQAPGKERELVAAISWSGVSTYYADSVKGRFTISRDNAKNTVYLQMNSLKPEDTAVYYCNRRARSYADDYWGQGTQVTVSS | high polyreactivity
9 | QVQLVESGGGLVQAGGSLRLSCAASGFTFWYYAMGWYRQAPGKERELVAAITYNGDRTYYADSVKGRFTISRDNAKNTVYLQMNSLKREDTAVYYCAVYLGIRSGTANDYWGQGTQVTVSS | high polyreactivity
10 | QVQLVESGGGLVQAGGSLRLSCAASGFTFWYYAMGWYRQAPGKERELVATITSGDSTKYADSVKGRFTISRDNAKNTVYLQMNSLKPEDTAVYYCAAEKVLPFIGYDYWGQGTQVTVSS | low polyreactivity
11 | QVQLVESGGGLVQAGGSLRLSCAASGFTFWYYTMGWYRQAPGKERELVAAITRSGGRTYYADSVKGRFTISRDNAKNTVYLQMNSLKPEDTAVYDCAAVGNLYYTSHWQYDYWGQGTQVTVSS | high polyreactivity
12 | QVQLVESGGGLVQAGGSLRLSCAASGFTFYANAMGWYRQAPGKERELVAAISWSGGRTYYADSVKGRFTISRDNAKNTVYLQMNSLKPEDTAVYYCAAKRWTTKNGFYEYPYYYWGQGTQVTVSS | high polyreactivity
13 | QVQLVESGGGLVQAGGSLRLSCAASGFTFYAYAMGWYRQAPGKERELVAVISQSGTRTYYADSVKGRFTISRDNAKNTVYLQMNSLKPEDTAVYYCAADTYSPDREYGYWGQGTQVTVSS | high polyreactivity
14 | QVQLVESGGGLVQAGGSLRLSCAASGFTFYDYAMGWYRQAPGKERELVAAISDSGGITYYADSVTGRFTISRDNAKNTVYLQMNSLKPEDTAVYYCAADFATPGPEYDYWGQGTQVTVSW | low polyreactivity
15 | QVQLVESGGGLVQAGGSLRLSCAASGFTFYFYALGWYRQAPGKERELVATITIGGRTNYADSVKGRFTISRDNAKNTVYLQMNSLKPEDTAVYYCAAAYLWISRYSGYDYWGQGTQVTVSS | high polyreactivity
16 | QVQLVESGGGLVQAGGSLRLSCAASGFTFYGNAMGWYRQAPGKERDLVAAITGRAGRTYYADSVKGRFTISRDNSKNTVYLQMNSLKPEDTAVYYCAVQVAQSRTFSTYGYWGQGTQVTVSS | high polyreactivity
17 | QVQLVESGGGLVQAGGSLRLSCAASGFTFYGYAMGWYRQAPGKERELVAAISSSGGRTYYADSVKGRFTISRDNAKNTVYLQMNSLKPEDTAVYYCAADYTSRDYYYWGQGTHVTVSS | high polyreactivity
18 | QVQLVESGGGLVQAGGSLRLSCAASGFTFYIYAMGWYGLAAGKERELVAAINFRGGSTYYADSVKGRFTISRDNAKNTVYLQMNSLKPEDTAVKYCAARSRDKYDYWGQGTQVTVSS | high polyreactivity
19 | QVQLVESGGGLVQAGGSLRLSCAASGFTFYKNTMGWYRPEPGKERELVAAISSSGSSTYYADSVKGRFRISRDNAKNTVYLLMNSLKPEDTAVYYCAAGRFAYHDDYWGQGTQVTVSS | high polyreactivity
20 | QVQLVESGGGLVQAGGSLRLSCAASGFTFYKNTMGWYRQAPGNERELVAAISYRGGTYYADSVKGRFTISRDNAKTTVYLQMNSLKPEDTAVYYCNARYRGKYSSYGFWGHGTQVTVSS | high polyreactivity
21 | QVQLVESGGGLVQAGGSLRLSCAASGFTFYKYAMGWYRQAPGKERELVAAISRRGTSTYYADSVKGRFTISRDNAKNTVYLQMNSLKPEDTAVYYCNRDVSLSAFDYWGQGTQVTVSS | high polyreactivity
22 | QVQLVESGGGLVQAGGSLRLSCAASGFTFYKYAMGWYRQAPGKERELVAGIRRGGTNYADSVKGRFTISRDNAKNTVYLQMNSLKPEDTAVYYCAADVRPYYSAYRGRYYYWGQGTQVTVSS | high polyreactivity

Row | Sequence | polyreactivity (PSR sort gate)
23 | QVQLVESGGGLVQAGGSLRLSCAASGFTFYKYVMGWYRQAPGKERELVAAISYSSGSTYYADSVKGRFTISRDNAKNTVYLQMNSLKPEDTAVYYCAARTYYAPQNMGYWGQGTQVTVSS | high polyreactivity
24 | QVQLVESGGGLVQAGGSLRLSCAASGFTFYLNAKGWYRQAPGKERELVAAITGSGGSTYYADSVKGRFTISRDNAKNTVYLQMNSLKPEDTAVYYCAADLYFYVISSGYGFYYWGQGTQVTVSS | low polyreactivity
25 | QVQLVESGGGLVQAGGSLRLSCAASGFTFYLNAMGLYRQAPGKERELVAGISWRGGRTYYADSVKGRFTISRDNAKNSVYLQMNSLKAEDTAVYYCAAVTYSFQKTDYYWGQGTQVTVSS | high polyreactivity
26 | QVQLVESGGGLVQAGGSLRLSCAASGFTFYLYAMGWYRQAPGKERELVASISSGGRTYYADSVKGRFTISRDNAKNTVYLQMNSLKPEDTAVYYCAVSPYSRRKYEYYYWGQGTQVTVSS | high polyreactivity
27 | QVQLVESGGGLVQAGGSLRLSCAASGFTFYLYGMGWYRPAPGKERELVAGIDSDGRTNYADSVKGRFTISRDNAMNTVYLQMNSLKPEDTAVYYCAVEWAGGYDYYYWGQGSQVTVSS | high polyreactivity
28 | QVQLVESGGGLVQAGGSLRLSCAASGFTFYLYTMGWYRQAPGKERELVAAINYSGGRTYYADSVKGRFTISRDNAKNTVYLQMNSLKPEDTAVYYCYPRVKNLQAYDYWGQGTQVTVSS | high polyreactivity
29 | QVQLVESGGGLVQAGGSLRLSCAASGFTFYPYAMGWYRQAPGKERELVAASTASGGSTYYADSVKGRFTISRDNAKNTVYLQMNSLKPEDTAVFYCAKGWVSYWRYKNEYWGQGTQVTVSS | high polyreactivity
30 | QVQLVESGGGLVQAGGSLRLSCAASGFTFYPYTMGWYRQAPGKERELVAVITYDSTYYADSVKGRFTISRDNAKNTVYLQMNSLKPEDTAVYYCNATGYSVSRSAYWYGWYDYWGQGTQVTVSS | low polyreactivity
31 | QVQLVESGGGLVQAGGSLRLSCAASGFTFYQYAMGWSRPAPGKERELVAGISRGGRTYYADSVKGRFTISRDNANNTVYLQMNSLKPEDTAVYYCAARYFYYKNVYAYRTYYYWGQGTQVTVSS | high polyreactivity
32 | QVQLVESGGGLVQAGGSLRLSCAASGFTFYQYAMGWYRQAPGKERELVASISWSGGRTYYADSVKGRFTISRDNAKKTVYFQKNSLKPEDTAVYYCAARAYRIAGYDYWGQGTQVTVSS | high polyreactivity
33 | QVQLVESGGGLVQAGGSLRLSCAASGFTFYRNAMGWYRQAPGKERELVAAISRGGRTYYADSVKGRFTISRDNAKNTVYLQMNSLKPEDTAVYYCAVGYSGYGSSMDYWGQGTQVTVSS | high polyreactivity
34 | QVQLVESGGGLVQAGGSLRLSCAASGFTFYRNAMGWYRQAPGKEREVVAAISISGGSTYYADSVKGRFTISRDNAKNTVYLQMNSLKPEDTAVYYCAAYYYRDRYSRVKVTYWGLGTQVTVSS | high polyreactivity
35 | QVQLVESGGGLVQAGGSLRLSCAASGFTFYRNTMGWYRQAPGKERELVATITFSGTRTYYADSVKGRFTISRDNAKNTVYLQMNSLKPEDTAVYYCNRVRYRQSAFDFWGQGTQVTVSS | high polyreactivity
36 | QVQLVESGGGLVQAGGSLRLSCAASGFTFYRYAMGWYRKAPGKERELVAAISSSGGTTYYADSVKVRFTISRDHAKNTVYLQMNRLKPEDTAVYYCAARGWPNWGWGYDYWGQGTQVTVSS | high polyreactivity
37 | QVQLVESGGGLVQAGGSLRLSCAASGFTFYRYAMGWYRQAPGKERELVAAFSGSGGSTYYADSVKGRFTISRDNAKNTVYLQMNSLKPEDTAVYYCNTVWFYGAKYDYWGQGTQVTVSS | high polyreactivity
38 | QVQLVESGGGLVQAGGSLRLSCAASGFTFYRYAMGWYRQAPGKERELVAAISKRGGNTYYADSVKGRFTISRDNAKNTVYLQMNSLKPEDTAVYYCAADFATWDAKPYDYWGQGTQVTVSS | high polyreactivity
39 | QVQLVESGGGLVQAGGSLRLSCAASGFTFYRYAMGWYRQAPGKERELVAAITRSGSRSYYADSVKGRFTISRDNAKNTVYLQMNSLKPEDTAVYSCNGPRPASTDRRRYNYCGQGTQVTVSS | high polyreactivity
40 | QVQLVESGGGLVQAGGSLRLSCAASGFTFYRYAMGWYRQAPGKERELVATISASGGSTYYADSVKGRFTISRDNAKNTVYLQMNSLKPEDTAVYYCAAEHYLWGYVVVREDYWGQGTQVTVSS | high polyreactivity
41 | QVQLVESGGGLVQAGGSLRLSCAASGFTFYRYAMGWYRQAPGNERELVAAISSGGRTTYADSVKGRFTISRDNANNTVYLQMNSLKPQDTAVYYCVFVYVYDYYYWGQGTQVTVSS | high polyreactivity
42 | QVQLVESGGGLVQAGGSLRLSCAASGFTFYRYAMGWYRQAPWKERELVAVISGNAGSTYYADSVKGRFTISRDNAKNTVYLQMNSLKPEDTAVYYCNARKARAYGTFEYWGQGTQVTVSS | high polyreactivity
43 | QVQLVESGGGLVQAGGSLRLSCAASGFTFYRYTMGCYRQAPGKERELVAAISSGDSTYYADSVKGRFTISRDNAKNTVYLQMNSLKPEDTAVYYCAARQYSRGAIVYYWGQGTQVTVSS | high polyreactivity
